Laboratory results published in patent US20210079060A1 (ALETA BIOTHERAPEUTICS, published 2021).
Where “and” joins values, the source holds several entries; their conditions need not be identical. Identical values can stand only once. Like-named read-outs stand apart in the source and are kept apart here. One block for each binder: values may come before it.

Legend:
EGFR = target: T1, EGFR (UniProt P00533 25-1210, limits assumed); assay: binding to EGFR positive cells (data not shown)
T1 construct: whole, on cells; also called EGFR positive cells; EGFR positive H292 cells

Clec12A [1] = target: T2, Clec12A (human, UniProt Q5QGZ9 1-265); assay: sandwich ELISA as for the other curves; the curve still rises at 1 ug/ml (about 1.33), no upper plateau; fit D 1.55
T2 construct: whole, on cells; also called CLL-1; MICL
T2 sequence (looked up): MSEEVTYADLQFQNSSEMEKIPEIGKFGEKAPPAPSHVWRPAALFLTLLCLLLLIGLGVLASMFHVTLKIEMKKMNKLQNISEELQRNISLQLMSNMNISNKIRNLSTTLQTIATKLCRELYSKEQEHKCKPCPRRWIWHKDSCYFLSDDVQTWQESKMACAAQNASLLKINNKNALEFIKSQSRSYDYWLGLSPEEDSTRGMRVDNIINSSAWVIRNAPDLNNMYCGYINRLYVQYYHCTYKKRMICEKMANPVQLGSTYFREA

CD20 = target: T3, CD20 (UniProt P11836 1-297, limits assumed); assay: FACS on 293T cells transfected with CD20, FMC63-PE detection
T3 construct: whole, on cells; also called CD20 positive HEK293 cells
T3 sequence (looked up): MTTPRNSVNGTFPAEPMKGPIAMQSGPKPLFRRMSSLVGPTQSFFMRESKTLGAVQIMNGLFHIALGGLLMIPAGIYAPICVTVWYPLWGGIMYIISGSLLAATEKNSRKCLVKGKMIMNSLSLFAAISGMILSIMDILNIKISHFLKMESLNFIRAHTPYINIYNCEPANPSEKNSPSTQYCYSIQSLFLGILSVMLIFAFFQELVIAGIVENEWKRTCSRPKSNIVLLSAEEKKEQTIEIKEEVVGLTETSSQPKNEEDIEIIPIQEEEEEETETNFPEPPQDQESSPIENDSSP

Clec12A [2] = target: T2, Clec12A; assay: FACS on Clec12A-expressing U937 cells, % Binding against concentration, detected with FMC63-PE
Description: (§1) In addition, bispecific constructs were generated and assayed. […] These constructs were assayed for binding to U937 cells. […] Cells were then spun, washed twice, fixed, and analyzed by FACS.

Clec12A [3] = target: T2, Clec12A; assay: FACS on Clec12A-expressing U937 cells, % Binding against concentration, detected with FMC63-PE; molar value with printed MW 43.7 kDa
Description: as §1

Clec12A [4] = target: T2, Clec12A; assay: FACS on Clec12A expressing U937 cells, detected with FMC63-PE
Clec12A [5] = target: T2, Clec12A; assay: FACS on Clec12A expressing U937 cells, detected with a-His-PE
Clec12A [6] = target: T2, Clec12A; assay: sandwich ELISA: coated with FMC63, construct titrated (x-axis ug/ml), followed by Clec12A-bio, detected by HRP-SA
Clec12A [7] = target: T2, Clec12A; assay: as above; remark: listed apart in the source
Clec12A [8] = target: T2, Clec12A; assay: binding to U937 cells; supernatant
Clec12A [9] = target: T2, Clec12A; assay: binding to U937 cells; supernatant; MW = 46kDa
Clec12A [10] = target: T2, Clec12A; assay: sandwich ELISA as for the other curves; the curve stays near 0.13 up to about 0.33 ug/ml and reaches only about 0.18 at 1 ug/ml (fit A 0.13, D 0.202)

B1: CD19 ECD N term mutant#-EGFR Fn3 (designed binder)
chain: PEEPLVVKVEEGDTAALWCLKGTSDGPTQQLTWSRESPLKPFLKYSLGVPGMGVHVRPNAVSLVISNVSQQMGGFYLCQPGPPSEKAWQPGWTVNVEGSGELFRWNVSDLGGLGCGLKNRSSEGPSSPSGKLMSPKLYVWAKDRPEIWEGEPPCLPPRDSLNQSLSRDMTVAPGSTLWLSCGVPPDSVSRGPLSWTHVHPKGPKSLLSLELKDDRPARDMWVMETGLVLPRATAQDAGKWYCHRGNVTTSYHLEITARPVSAHTPLRTGGWKGGGGSGGGGSGGGGSGGGGSVSDVPRDLEVVAATPTSLLISWFDYAVTYYRITYGETGGNSPVQEFTVPGWISTATISGLKPGVDYTITVYAVTDNSHWPFRSTPISTNYRTEIDKPPQHHHHHH
notes: Fusion protein; also called construct #230; CD19-Fn3/EGFR
binding result (EGFR): binds

B2: #328 (VHH)
VHH: QVQLQESGGGLVQPGGSLRLSCAASGFTFNSYAMTWVRQAPGKGLEWVSDINSGGGSTNYADSVKGRFTISRDNAKNTLYLQMNSLKPEDTAVYYCATELRGSDYYRGPIREYAYWGQGTLVTVSS
notes: also called anti CLEC12a VHH 1H1-G4Sx4-CD19 C-term mutant #2-His
EC50 (Clec12A [1]): 0.155 µg/mL and 3.33 nM

B3: CD19 D1+2-anti-CD20 scFv (VH/VL) (scFv)
chain: PEEPLVVKVEEGDNAVLQCLKGTSDGPTQQLTWSRESPLKPFLKLSLGLPGLGIHMRPLAIWLFIFNVSQQMGGFYLCQPGPPSEKAWQPGWTVNVEGSGELFRWNVSDLGGLGCGLKNRSSEGPSSPSGKLMSPKLYVWAKDRPEIWEGEPPCLPPRDSLNQSLSQDLTMAPGSTLWLSCGVPPDSVSRGPLSWTHVHPKGPKSLLSLELKDDRPARDMWVMETGLLLPRATAQDAGKYYCHRGNLTMSFHLEITARPGGGGSGGGGSGGGGSGGGGSMAQVKLQESGAELVKPGASVKMSCKASGYTFTSYNMHWVKQTPGQGLEWIGAIYPGNGDTSYNQKFKGKATLTADKSSSTAYMQLSSLTSEDSADYYCARSNYYGSSYWFFDVWGQGTTVTVSSGGGGSGGGGSGGGGSDIELTQSPTILSASPGEKVTMTCRASSSVNYMDWYQKKPGSSPKPWIYATSNLASGVPARFSGSGSGTSYSLTISRVEAEDAATYYCQQWSFNPPTFGGGTKLEIKRAAAHHHHHH
notes: Wild type CD19 D1+D2 N-terminal to the Leu16 scFv; also called construct #83; wild type CD19 D1+D2 fusion protein
EC50 (CD20): 0.379 µg/mL and 6.68 nM

B4: anti-CLEC12a VHH 2H3-CD19 D1+2 C term mutant #2 (VHH)
VHH: QVQLQESGGGLVQAGGSLRLSCVASGSIRSINVMGWYRQAPGKQRELVAACASDGNTYYADSVKGRFTISRDNAEKTVYLQMNNLKPDDTAVYYCDANSRGNYYSGQGTQVTVSS
notes: also called construct #330
EC50 (Clec12A [2]): 0.0449 µg/mL
EC50 (read off the curve) (Clec12A [2]): ~0.05 µg/mL
EC50 (Clec12A [3]): 1.03 nM
EC50 (Clec12A [4]): 0.0723 µg/mL and 1.54 nM
EC50 (Clec12A [5]): 0.0446 µg/mL and 0.95 nM
C of the 4-P fit (midpoint) (Clec12A [6]): 0.0168 µg/mL
EC50 (Clec12A [6]): 0.0168 µg/mL and 0.361 nM

B8: CD19 ECD N term mutant #2-G4Sx4-anti CLEC12a VHH 1B12-His (VHH)
chain: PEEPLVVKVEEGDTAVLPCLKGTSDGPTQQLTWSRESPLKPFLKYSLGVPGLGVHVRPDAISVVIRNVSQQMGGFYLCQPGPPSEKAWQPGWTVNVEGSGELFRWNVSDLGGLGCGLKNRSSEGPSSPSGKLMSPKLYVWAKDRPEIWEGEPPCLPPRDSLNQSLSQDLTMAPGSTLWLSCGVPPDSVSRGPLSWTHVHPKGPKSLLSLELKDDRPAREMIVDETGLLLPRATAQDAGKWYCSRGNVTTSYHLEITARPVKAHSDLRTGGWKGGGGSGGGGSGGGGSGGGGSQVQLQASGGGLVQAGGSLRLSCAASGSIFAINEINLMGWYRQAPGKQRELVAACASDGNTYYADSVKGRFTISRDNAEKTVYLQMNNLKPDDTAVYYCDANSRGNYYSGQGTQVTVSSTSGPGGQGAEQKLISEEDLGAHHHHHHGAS
notes: CD19 variant-VHH fusion; also called CD19-VHH1B12/Clec12A
EC50 (Clec12A [4]): 0.155 µg/mL and 3.3 nM
EC50 (Clec12A [5]): 0.233 µg/mL and 4.96 nM
C of the 4-P fit (midpoint) (Clec12A [7]): 0.00403 µg/mL
EC50 (Clec12A [7]): 0.004 µg/mL and 0.086 nM

B9: CD19 mutant #2-G4Sx4-anti CLEC12a VHH 2F5-myc-His (VHH)
chain: PEEPLVVKVEEGDTAVLPCLKGTSDGPTQQLTWSRESPLKPFLKYSLGVPGLGVHVRPDAISVVIRNVSQQMGGFYLCQPGPPSEKAWQPGWTVNVEGSGELFRWNVSDLGGLGCGLKNRSSEGPSSPSGKLMSPKLYVWAKDRPEIWEGEPPCLPPRDSLNQSLSQDLTMAPGSTLWLSCGVPPDSVSRGPLSWTHVHPKGPKSLLSLELKDDRPAREMIVDETGLLLPRATAQDAGKWYCSRGNVTTSYHLEITARPVKAHSDLRTGGWKGGGGSGGGGSGGGGSGGGGSQVQLQQSGGGLAQTGGSLILSCAASGSIFAINEINLMGWYRQAPGKQRELVAACASDGNTYYADSVKGRFTISRDNAEKTVYLQMNNLKPDDTAVYYCDANSRGNYYSGQGTQVTVSSTSGPGGQGAEQKLISEEDLGAHHHHHHGAS
notes: CD19 variant-VHH fusion
EC50 (Clec12A [8]): 0.151 µg/mL
EC50 (Clec12A [9]): 3.29 nM
C of the 4-P fit (midpoint) (Clec12A [7]): 0.00983 µg/mL
EC50 (Clec12A [7]): 0.0098 µg/mL and 0.21 nM

B10: #331 (VHH)
VHH: QVQLQQSGGGLVQAGGSLTLSCAATGRTIDNGAMAWFRQAPGKQRELVAAINWSGGATFYTDSVKYRFTISRDNVRHTLDLQMTSLKPEDTTIYFCASRRGVDLRRNSYEYDYWGRGTLVTVSS
notes: also called anti CLEC12a VHH 2C2-G4Sx4-CD19 C-term mutant #2-His
EC50 (Clec12A [10]): 0.698 µg/mL and 15 nM

Further lines, results first:

binding result (EGFR): binds
B5: CD19 ECD N term mutant#3-EGFR Fn3 (designed binder)
chain: PEEPLVVKVEEGDTAALWCLKGTSDGPTQQLTWSRESPLKPFLKLSLGLPGMGVHMRPGAVSAVISNVSQQMGGFYLCQPGPPSEKAWQPGWTVNVEGSGELFRWNVSDLGGLGCGLKNRSSEGPSSPSGKLMSPKLYVWAKDRPEIWEGEPPCLPPRDSLNQSLSRDMTVAPGSTLWLSCGVPPDSVSRGPLSWTHVHPKGPKSLLSLELKDDRPARDMWVMGTSLILPRATAQDAGKYYCHRGNLTMSFHLEVVARPVKAHSDLRTGGWKGGGGSGGGGSGGGGSGGGGSVSDVPRDLEVVAATPTSLLISWFDYAVTYYRITYGETGGNSPVQEFTVPGWISTATISGLKPGVDYTITVYAVTDNSHWPFRSTPISTNYRTEIDKPPQHHHHHH
notes: Fusion protein; also called construct #229; CD19-Fn3/EGFR

binding result (EGFR): binds
B6: CD19 ECD N term mutant#1-EGFR Fn3 (designed binder)
chain: PEEPLVVKVEEGDDAWLRCLKGTSDGPTSQVTWSRESPLKPFLKYSLGVPGLGVHIRPLAIGLVIPNVSQQMGGFYLCQPGPPSEKAWQPGWTVNVEGSGELFRWNVSDLGGLGCGLKNRSSEGPSSPSGKLMSPKLYVWAKDRPEIWEGEPPCLPPRDSLNQSLSQDLTMAPGSTLWLSCGVPPDSVSRGPLSWTHVHPKGPKSLLSLELKDDRPAREMIVDETGLLLPRATAQDAGKYYCHRGNRTISYHLEITARPVSAHTPLRTGGWKGGGGSGGGGSGGGGSGGGGSVSDVPRDLEVVAATPTSLLISWFDYAVTYYRITYGETGGNSPVQEFTVPGWISTATISGLKPGVDYTITVYAVTDNSHWPFRSTPISTNYRTEIDKPPQHHHHHH
notes: also called construct #227; CD19-Fn3/EGFR

binding result (EGFR): binds
B7: CD19 ECD N term mutant#2-EGFR Fn3 (designed binder)
chain: PEEPLVVKVEEGDTAVLPCLKGTSDGPTQQLTWSRESPLKPFLKYSLGVPGLGVHVRPDAISVVIRNVSQQMGGFYLCQPGPPSEKAWQPGWTVNVEGSGELFRWNVSDLGGLGCGLKNRSSEGPSSPSGKLMSPKLYVWAKDRPEIWEGEPPCLPPRDSLNQSLSQDLTMAPGSTLWLSCGVPPDSVSRGPLSWTHVHPKGPKSLLSLELKDDRPAREMIVDETGLLLPRATAQDAGKWYCSRGNVTTSYHLEITARPVKAHSDLRTGGWKGGGGSGGGGSGGGGSGGGGSVSDVPRDLEVVAATPTSLLISWFDYAVTYYRITYGETGGNSPVQEFTVPGWISTATISGLKPGVDYTITVYAVTDNSHWPFRSTPISTNYRTEIDKPPQHHHHHH
notes: Fusion protein; also called CD19-Fn3/EGFR
